Experimental findings from the nanobody polyreactivity screen of Harvey et al. (2022) are described below.

This series is described as follows: yeast display, Sf9 membrane polyspecificity reagent, FACS + sequencing; frameworks hold sequencing errors. The procedure, abridged:
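After 36–48 hours of galactose induction, yeast (Saccharomyces cerevisiae BJ5465) displaying a synthetic nanobody library were stained at 4 °C for 1 hour with 10% biotinylated, detergent-solubilized Sf9 membrane reagent. Streptavidin microbeads enriched the stained cells before FACS sorting into low and high (top ~1%) gates on anti-HA and streptavidin fluorescence. Each clone's polyreactivity label reflects its gate of origin.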
For the sequence “QVQLVESGGGLVQAGGSLRLSCAASGFTFYYYAMGWYRQAPGKERELVAVITSGGNTYYADSVKGRFTISRDNAKNNVYLQMNSLKPEDTAVYYCAKDVSDPFYDPFEYWGQGTQVTVSS”, the “polyreactivity (PSR sort gate)” value is reported as “low polyreactivity”.

Regarding “QVQLVESGGGLVQAGGSLRLSCAASGFTFYYYAMGWYRQAPGTEMELVAALSRSGVRTYYADSVNGRFTISRDNGKNTVYLQMTSLKPEDTAVYYCAAEFARSRMNYWGQGTKVTVSS”, the “polyreactivity (PSR sort gate)” value is listed as “high polyreactivity”.

On to “QVQLVESGGGLVQAGGSLRLSCAASGFTHDWYAMGWYRQAPGKERELVAAIWSAGTTYYADSVKGRFTISRDNAMNTVYLQMNSLKPEDPAVYYCATVSDYDFGLYDYWGQGTQVTVSS”, for which the “polyreactivity (PSR sort gate)” value is reported as “low polyreactivity”.

“QVQLVESGGGLVQAGGSLRLSCAASGFTIAYYAMGWYRQAPGKERELVAAITTSGSTYYADSVKGRFTISRDNAQNTVYLQMNSLKPEDTAVYYCAVSIWGWFASGFDYWGQGTQVTVSS”: the “polyreactivity (PSR sort gate)” value is reported as “high polyreactivity”.

Regarding “QVQLVESGGGLVQAGGSLRLSCAASGFTIDAYAMGWYRQAPGKDRELVAAISGSGGSTYYADSVKGRFTISRDNAKNTVYLQMNSLKPEDTALYYCAKDPGPYDYDYWGQGTQVTVSS”, the “polyreactivity (PSR sort gate)” value is given as “low polyreactivity”.

Turning to “QVQLVESGGGLVQAGGSLRLSCAASGFTIDLYAMGWYRQAPGKERELVAAISIRGGSTYYADSVKGRFTISRDNAKNTVYLQMNSLKPEDTAVYYCATVTSRRSYIAYRGTGDYDYWGQGTQVTVSS”, the “polyreactivity (PSR sort gate)” value was “low polyreactivity”.

In the case of “QVQLVESGGGLVQAGGSLRLSCAASGFTIFYYAMGWYRQAPGKERELVASISWSGGSTYYADSVMGRFTISRENAKNSVYLQMNSLKPEDTAVYYCAADVPFGGDYWGQGTQVTVSS”, the “polyreactivity (PSR sort gate)” value is recorded as “low polyreactivity”.

As to “QVQLVESGGGLVQAGGSLRLSCAASGFTISRYAMGWYRQAPGKERELVAAITWSGVSTYYADSVKGRFTISRDNAKNTVYLQMNSRKPEDTAVYYCAATTYSSSSSHDYWGQGTQVTVSS”, the “polyreactivity (PSR sort gate)” value is given as “low polyreactivity”.

Regarding “QVQLVESGGGLVQAGGSLRLSCAASGFTISVYAMGWYRQAPGKERELVAAISWNGGRTYYAVSVKGRFTISRDNAKNTVYLQMNSLKPEDSAVYYCNKVSGYDVDYWGQGTQVTVSS”, the “polyreactivity (PSR sort gate)” value is given as “high polyreactivity”.

As to “QVQLVESGGGLVQAGGSLRLSCAASGFTITQYGMGWYRQAPGKERELVADITYSGGDTYYADSVKGRFTISRDNAKNTVYLQMNSLKPEDTAVYFCAAYSWKYCFVWGYVYWGQGTQVTVSS”, the “polyreactivity (PSR sort gate)” value is reported as “high polyreactivity”.

Turning to “QVQLVESGGGLVQAGGSLRLSCAASGFTIVTYAMGWYRQAPGKERELVAAISKSGGTTYYADSVKGRFTISRDNAKNTVYLQMNSLKPEDTAVYYCNKRWYIARPVDRYRYYYWGQGTQVTVSS”, the “polyreactivity (PSR sort gate)” value is “high polyreactivity”.

As to “QVQLVESGGGLVQAGGSLRLSCAASGFTIVYYAMGWYRQAPGKERELVAAITWSGGNTYYADSVKWRITISRDNAKNTVYLHMNSLKPEDNAVYYCAASPRGRRTTVGYPRRPFDYWGLGTQVTVSS”, the “polyreactivity (PSR sort gate)” value was “high polyreactivity”.

Regarding “QVQLVESGGGLVQAGGSLRLSCAASGFTIWAYTMGCYRQAPGKEREFVADITSRGGSTFYADSVKGRFTISRDNAKNTVYLQMNSLKPEDTAVDYCAAEGFDTRMYYWGQGTQVTVSS”, the “polyreactivity (PSR sort gate)” value was “high polyreactivity”.

Regarding “QVQLVESGGGLVQAGGSLRLSCAASGFTIWDYAMGWYRQAPGKERELVAAISWSGGSTYYADSVKGRFTISRDNAKNTVYLQMNSLKPEDTAVYYCNAVHYSHHGYDYWGQGTQVTVSS”, the “polyreactivity (PSR sort gate)” value was “low polyreactivity”.

In the case of “QVQLVESGGGLVQAGGSLRLSCAASGFTIWRYAMGWYRQAPGKERELVAAISWRGGSTYYADSVKGRFTISRDNAKNTVYLQMNSLKPEDTAVYYCAAAYNLPPGYDYWGLGTQVTVSS”, the “polyreactivity (PSR sort gate)” value is reported as “high polyreactivity”.

Consider “QVQLVESGGGLVQAGGSLRLSCAASGFTIWWYAMGWSRRAPGKERELVATITSGGRTNYAYSVKGRFTISRDNAKNTVYLQMTSLKPEDTAVYYCATRQLSKVKDMDYWGQGTQVTVSS”, for which the “polyreactivity (PSR sort gate)” value is given as “high polyreactivity”.
